Assay [1] concerns the target FnBP purified from S. aureus strain Newman (Staphylococcus aureus). Description: competition ELISA on FnBP-coated wells; competitor anti-D121-34 F(ab')2 at 100 µg/ml.
Assay [2] shares this target. Put plainly: competition ELISA on FnBP-coated wells; competitor anti-D320-33 F(ab')2 at 100 µg/ml. (In general: In an ELISA, binding on a coated surface is turned into a signal by an enzyme label.)

Human plasma Fn, P02751 32-2296 (ligand), sequence (P02751 other isoform, or with tags, fused parts or gaps limits assumed): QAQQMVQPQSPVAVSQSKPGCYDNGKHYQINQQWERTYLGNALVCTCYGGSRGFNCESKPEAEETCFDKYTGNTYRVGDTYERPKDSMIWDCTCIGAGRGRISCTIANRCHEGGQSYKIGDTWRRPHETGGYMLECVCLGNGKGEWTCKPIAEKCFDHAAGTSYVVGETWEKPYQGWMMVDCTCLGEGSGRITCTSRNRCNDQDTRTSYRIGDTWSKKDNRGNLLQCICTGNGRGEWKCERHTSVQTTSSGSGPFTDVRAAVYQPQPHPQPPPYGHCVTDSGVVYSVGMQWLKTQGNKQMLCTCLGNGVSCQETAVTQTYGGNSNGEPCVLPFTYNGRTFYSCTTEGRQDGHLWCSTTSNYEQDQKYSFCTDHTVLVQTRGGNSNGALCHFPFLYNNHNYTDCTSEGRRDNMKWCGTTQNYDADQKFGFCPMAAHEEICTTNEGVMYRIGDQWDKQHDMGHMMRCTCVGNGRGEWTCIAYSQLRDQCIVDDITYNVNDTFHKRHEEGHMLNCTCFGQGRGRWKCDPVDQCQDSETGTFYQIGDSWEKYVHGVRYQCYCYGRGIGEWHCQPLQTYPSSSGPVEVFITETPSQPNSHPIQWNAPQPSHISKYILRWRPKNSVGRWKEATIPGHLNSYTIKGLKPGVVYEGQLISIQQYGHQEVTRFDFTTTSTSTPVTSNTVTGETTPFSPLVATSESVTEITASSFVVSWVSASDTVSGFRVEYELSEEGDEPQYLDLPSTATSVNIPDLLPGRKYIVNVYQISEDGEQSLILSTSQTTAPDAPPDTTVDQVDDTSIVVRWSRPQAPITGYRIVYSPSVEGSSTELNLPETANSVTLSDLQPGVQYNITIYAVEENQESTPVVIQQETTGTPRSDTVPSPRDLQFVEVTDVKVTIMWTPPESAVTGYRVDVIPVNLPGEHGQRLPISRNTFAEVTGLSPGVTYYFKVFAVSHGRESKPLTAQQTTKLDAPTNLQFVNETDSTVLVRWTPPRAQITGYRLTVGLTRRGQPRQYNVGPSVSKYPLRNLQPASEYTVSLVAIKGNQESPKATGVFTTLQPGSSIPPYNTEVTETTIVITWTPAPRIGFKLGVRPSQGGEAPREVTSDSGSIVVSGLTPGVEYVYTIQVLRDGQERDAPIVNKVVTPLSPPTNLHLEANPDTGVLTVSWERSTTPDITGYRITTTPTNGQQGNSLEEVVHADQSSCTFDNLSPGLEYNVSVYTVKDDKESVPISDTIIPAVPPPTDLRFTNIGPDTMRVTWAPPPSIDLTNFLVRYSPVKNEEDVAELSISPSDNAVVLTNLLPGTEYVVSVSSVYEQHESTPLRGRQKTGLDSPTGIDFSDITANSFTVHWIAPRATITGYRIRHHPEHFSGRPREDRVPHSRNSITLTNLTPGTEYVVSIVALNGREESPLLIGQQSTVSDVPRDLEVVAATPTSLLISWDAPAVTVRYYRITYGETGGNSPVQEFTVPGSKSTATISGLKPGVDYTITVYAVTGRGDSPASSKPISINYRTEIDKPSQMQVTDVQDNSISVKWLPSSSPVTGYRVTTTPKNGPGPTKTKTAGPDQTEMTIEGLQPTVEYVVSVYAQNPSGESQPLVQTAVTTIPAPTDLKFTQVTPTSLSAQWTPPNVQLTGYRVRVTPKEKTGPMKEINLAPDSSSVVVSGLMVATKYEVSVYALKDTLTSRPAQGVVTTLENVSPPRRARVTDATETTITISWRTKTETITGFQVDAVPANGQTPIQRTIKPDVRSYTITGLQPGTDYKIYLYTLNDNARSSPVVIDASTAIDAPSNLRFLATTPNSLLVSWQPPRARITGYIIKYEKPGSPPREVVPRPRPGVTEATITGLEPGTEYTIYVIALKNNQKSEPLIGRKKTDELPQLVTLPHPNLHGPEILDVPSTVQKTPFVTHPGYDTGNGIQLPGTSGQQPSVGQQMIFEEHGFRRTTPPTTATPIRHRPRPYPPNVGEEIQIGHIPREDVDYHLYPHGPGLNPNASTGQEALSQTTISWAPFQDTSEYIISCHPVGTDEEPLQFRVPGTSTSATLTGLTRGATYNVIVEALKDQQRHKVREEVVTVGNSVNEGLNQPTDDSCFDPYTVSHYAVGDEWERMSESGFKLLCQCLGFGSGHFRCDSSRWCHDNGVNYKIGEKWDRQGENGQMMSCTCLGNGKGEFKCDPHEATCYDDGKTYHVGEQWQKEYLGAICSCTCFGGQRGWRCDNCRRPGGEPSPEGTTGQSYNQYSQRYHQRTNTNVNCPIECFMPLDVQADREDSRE

As to “Human plasma Fn, P02751 32-2296 (ligand)”, the concentration of soluble Fn at which F(ab')2 recognition of FnBP was virtually eliminated in assay [1] and in assay [2] was 50 µg/mL in each case.
